Laboratory results as given in publication PMC2720046 (Science (New York, N.Y.), 2008).
One block for each molecule: values may come before it.

Columns and labels:
[1] = biological target: T1, CEP55-EABR (residues 160−217) (Homo sapiens, UniProt Q53EZ4); assay: ITC titration of peptide into CEP55-EABR solution; format: binding; settings: compared with ALIX peptide
T1 sequence (Q53EZ4 160-217): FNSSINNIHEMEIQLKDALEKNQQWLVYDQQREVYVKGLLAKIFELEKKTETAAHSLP

CEP55-EABR [2] = assay: Analytical ultracentrifugation of CEP55-EABR to peptide mixtures; format: binding; settings: TSG101 peptide added to preformed 2:1 CEP55:ALIX peptide complex
CEP55-EABR [3] = format: binding; settings: pull-down by GST-ALIX fragment with TSG101 peptide competitor
ALIX 797-809 = biological target: T2, ALIX 797-809 (Homo sapiens, UniProt Q8WUM4); assay: ITC
T2 chain: QAQGPPYPTYPGY

TSG101 154-166 = biological target: T3, TSG101 154-166 (Homo sapiens, UniProt Q99816); assay: ITC
T3 chain: QATGPPNTSYMPG

midbodies in HeLa cells = assay: Midbody localization of wild-type and mutant GFP-ALIX expressed in HeLa cells; format: cell-based; settings: full-length GFP-tagged ALIX, α−tubulin staining

Molecule: TSG101 peptide: related TSG101 peptide (residues 154 to 166) (QATGPPNTSYMPG; UniProt Q99816 154-166, looked up, fragment)
- affinity relative to ALIX peptide [1]: essentially the same affinity and stoichiometry
- competition with ALIX peptide for CEP55 site (CEP55-EABR [2]): a peak corresponding to the equivalent amount of uncomplexed peptide is formed, suggesting that TSG101 and ALIX compete for the same site
- competition for CEP55-EABR binding site (CEP55-EABR [3]): the two peptides interact with the same site

- Kd (ALIX 797-809): 1000 nM
- Kd (TSG101 154-166): ~1000 nM
B1: CEP55 160-217 (protein)
chain: FNSSINNIHEMEIQLKDALEKNQQWLVYDQQREVYVKGLLAKIFELEKKTETAAHSLP

B2: ALIX^Y806A: full-length ALIX mutant tagged with GFP (protein, UniProt Q8WUM4 1-868, looked up, variant Y806A)
chain: MATFISVQLKKTSEVDLAKPLVKFIQQTYPSGGEEQAQYCRAAEELSKLRRAAVGRPLDKHEGALETLLRYYDQICSIEPKFPFSENQICLTFTWKDAFDKGSLFGGSVKLALASLGYEKSCVLFNCAALASQIAAEQNLDNDEGLKIAAKHYQFASGAFLHIKETVLSALSREPTVDISPDTVGTLSLIMLAQAQEVFFLKATRDKMKDAIIAKLANQAADYFGDAFKQCQYKDTLPKEVFPVLAAKHCIMQANAEYHQSILAKQQKKFGEEIARLQHAAELIKTVASRYDEYVNVKDFSDKINRALAAAKKDNDFIYHDRVPDLKDLDPIGKATLVKSTPVNVPISQKFTDLFEKMVPVSVQQSLAAYNQRKADLVNRSIAQMREATTLANGVLASLNLPAAIEDVSGDTVPQSILTKSRSVIEQGGIQTVDQLIKELPELLQRNREILDESLRLLDEEEATDNDLRAKFKERWQRTPSNELYKPLRAEGTNFRTVLDKAVQADGQVKECYQSHRDTIVLLCKPEPELNAAIPSANPAKTMQGSEVVNVLKSLLSNLDEVKKEREGLENDLKSVNFDMTSKFLTALAQDGVINEEALSVTELDRVYGGLTTKVQESLKKQEGLLKNIQVSHQEFSKMKQSNNEANLREEVLKNLATAYDNFVELVANLKEGTKFYNELTEILVRFQNKCSDIVFARKTERDELLKDLQQSIAREPSAPSIPTPAYQSSPAGGHAPTPPTPAPRTMPPTKPQPPARPPPPVLPANRAPSATAPSPVGAGTAAPAPSQTPGSAPPPQAQGPPYPTAPGYPGYCQMPMPMGYNPYAYGQYNMPYPPVYHQSPGQAPYPGPQQPSYPFPQPPQQSYYPQQ
modifications: full-length GFP fusion
- midbody localization of GFP-ALIX (midbodies in HeLa cells): no midbody localization above background

B3: wild-type ALIX: full-length wild-type ALIX tagged with GFP (protein, UniProt Q8WUM4 1-868, looked up)
chain: MATFISVQLKKTSEVDLAKPLVKFIQQTYPSGGEEQAQYCRAAEELSKLRRAAVGRPLDKHEGALETLLRYYDQICSIEPKFPFSENQICLTFTWKDAFDKGSLFGGSVKLALASLGYEKSCVLFNCAALASQIAAEQNLDNDEGLKIAAKHYQFASGAFLHIKETVLSALSREPTVDISPDTVGTLSLIMLAQAQEVFFLKATRDKMKDAIIAKLANQAADYFGDAFKQCQYKDTLPKEVFPVLAAKHCIMQANAEYHQSILAKQQKKFGEEIARLQHAAELIKTVASRYDEYVNVKDFSDKINRALAAAKKDNDFIYHDRVPDLKDLDPIGKATLVKSTPVNVPISQKFTDLFEKMVPVSVQQSLAAYNQRKADLVNRSIAQMREATTLANGVLASLNLPAAIEDVSGDTVPQSILTKSRSVIEQGGIQTVDQLIKELPELLQRNREILDESLRLLDEEEATDNDLRAKFKERWQRTPSNELYKPLRAEGTNFRTVLDKAVQADGQVKECYQSHRDTIVLLCKPEPELNAAIPSANPAKTMQGSEVVNVLKSLLSNLDEVKKEREGLENDLKSVNFDMTSKFLTALAQDGVINEEALSVTELDRVYGGLTTKVQESLKKQEGLLKNIQVSHQEFSKMKQSNNEANLREEVLKNLATAYDNFVELVANLKEGTKFYNELTEILVRFQNKCSDIVFARKTERDELLKDLQQSIAREPSAPSIPTPAYQSSPAGGHAPTPPTPAPRTMPPTKPQPPARPPPPVLPANRAPSATAPSPVGAGTAAPAPSQTPGSAPPPQAQGPPYPTYPGYPGYCQMPMPMGYNPYAYGQYNMPYPPVYHQSPGQAPYPGPQQPSYPFPQPPQQSYYPQQ
modifications: full-length GFP fusion
- midbody localization of GFP-ALIX (midbodies in HeLa cells): strongly localized to midbodies
